Measurements taken from paper PMC6089081 (Redox Biology, 2018).

Target: the molecule itself
Assay: native gel or EMSA

B1: GRPEL2 (natural protein)
chain: STATQRTAGEDCRSEDPPDELGPPLAERALRVKAVKLEKEVQDLTVRYQRAIADCENIRRRTQRCVEDAKIFGIQSFCKDLVEVADILEKTTECISEESEPEDQKLTLEKVFRGLLLLEAKLKSVFAKHGLEKLTPIGDKYDPHEHELICHVPAGVGVQPGTVALVRQDGYKLHGRTIRLARVEVAVESQRRL
stoichiometry N: 2
